Experimental findings from publication PMC9894219 are described below.

Data set [1] addresses T1, Nurr1258 (in Nurr1258-RXRα98 heterodimer);RXRα98 (DBD-hinge-LBD) (human?;human?, UniProt P43354;P19793 258-598;98-462, |). The experiment in a line: BLI.
Data set [2] has as its target T1, Nurr1258 (in Nurr1258-RXRα98 …). Nature of the data set: BLI. This is another data set of the same source. For orientation: In BLI a coated tip is dipped into the sample, and binding shifts an interference pattern.
Data set [3] addresses Nurr1258 (Nurr1 DBD-hinge-LBD) (UniProt P43354 258-598). The experiment in a line: crystal structure.

Like-named read-outs stand apart in the source and are kept apart here.

T1 sequence (P43354 258-598, chain 1 of 2): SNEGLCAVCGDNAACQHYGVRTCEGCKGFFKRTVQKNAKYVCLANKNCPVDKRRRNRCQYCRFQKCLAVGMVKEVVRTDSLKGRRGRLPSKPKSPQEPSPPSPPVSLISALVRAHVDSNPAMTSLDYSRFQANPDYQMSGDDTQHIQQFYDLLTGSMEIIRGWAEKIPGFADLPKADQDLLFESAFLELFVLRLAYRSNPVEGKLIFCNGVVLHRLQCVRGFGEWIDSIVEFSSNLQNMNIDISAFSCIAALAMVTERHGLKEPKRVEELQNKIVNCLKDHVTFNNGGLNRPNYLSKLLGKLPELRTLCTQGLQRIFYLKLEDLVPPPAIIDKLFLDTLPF
T1 sequence (P19793 98-462, chain 2 of 2): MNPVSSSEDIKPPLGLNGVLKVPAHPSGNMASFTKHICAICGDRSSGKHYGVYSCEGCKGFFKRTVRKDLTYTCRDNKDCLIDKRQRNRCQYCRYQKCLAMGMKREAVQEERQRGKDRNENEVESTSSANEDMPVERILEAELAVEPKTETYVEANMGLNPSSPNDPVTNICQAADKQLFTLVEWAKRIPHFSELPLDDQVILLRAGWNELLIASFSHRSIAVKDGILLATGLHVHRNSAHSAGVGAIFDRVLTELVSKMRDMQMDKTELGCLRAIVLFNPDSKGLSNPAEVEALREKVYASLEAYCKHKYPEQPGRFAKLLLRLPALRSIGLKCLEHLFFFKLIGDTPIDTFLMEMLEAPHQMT
Sequence of Nurr1258 (Nurr1 DBD-hinge-LBD) (P43354 258-598): as the sequence (P43354 258-598, chain 1 of 2) above

B1: IR5 biotinylated (dsDNA)
DNA 1: AAAGGTCAAACTGTGACCTAT
DNA 2: ATAGGTCACAGTTTGACCTTT
Usually Kd stands for the free concentration of one partner at which half of the binding sites on the other are occupied at equilibrium, for simple one-to-one binding. On to B1, for which the Kd in data set [1] was found to be 864 nM; in data set [2] it was 62.5 nM.

B2: NBRE (dsDNA)
DNA 1: CCGAAAAGGTCATGCG
DNA 2: CGCATGACCTTTTCGG
Take B2: the binding result in data set [3] is given as “binds”.
